Measurements from US6518054B1, “Metallo-endopeptidases” (Rijksuniverstteit Te Groningen, priority 1997, dated 2003).

How the values were obtained:
[1] = format: physicochemical
Description: Stabilities of TLPs were determined at different temperatures. Shown are the first-order inactivation curves for TLP-ste incubated at 80° C. (Δ) and 90° C. (+), thermolysin at 90° C. (Δ), and the 8-fold mutant at 100° C. (●), respectively. […] Samples, taken at the various time points, were quickly cooled on ice (15 s) and transferred to 50° C. to prevent cold denaturation. Residual activity was determined using casein (0.8%) as a substrate in 50 mM TrisHCl (pH 7.5), 5 mM CaCl2 as described previously (Eijsink, V. G. H., Veltman, O. R., Aukema, W., Vriend, G. & Venema, G. Nature Struct. Biol. 2, 374-379 (1995)).

casein [2] = test: Optimum temperature for activity with casein; format: biochemical
Description: Specific activities for TLP-ste and the 8-fold mutant were determined using casein (0.8%) as a substrate in 50 mM Tris-HCl (pH 7.5), 5 mM CaCl2 at 37° C. […] (pH 7.0), 5 mM CaCl2, 5% or 1% DMSO, 0.5% isopropanol, 0.01% Triton X-100, 50 mM NaCl, with […] of substrate, by measuring the decrease in absorption at 345 nm (Î345=−317 M^−1·cm^−1). Stock solutions of the furylacryloylated dipeptides, (Sigma, St. Louis, […].) were prepared by dissolving 3-(-2-furylacryloyl)-L-glycyl-L-leucine amide (FaGLa) and 3-(-2-furylacryloyl)-L-alanyl-L-phenylalanine amide (FaAFa) in DMSO. The kcat/Km ratios of the enzymes were determined by varying the enzyme concentrations (over a 50 fold range) under pseudo-first order conditions by measuring the initial activity, essentially according to the method described by Feder^30. The Ki for phosphoramidon (N-[a-L-rhamnopyrano-syl-oxyhydroxyphophinyl]-L-leucyl-L-tryptophan) was determined by a 30 minute preincubation of a 100 pM protease solution with varying concentrations of the inhibitor (10^−8 to 10^−3 M), in 50 mM MOPS (pH 7.0), 5 mM CaCl2, 50 mM NaCl, prior to the addition of the furylacryloated substrate. For determination of the Ki FaAFa was used as the substrate. Since the Km of the substrate for the enzyme is higher than the concentration used, IC50 values were taken to be equal to Ki values. The optimum temperature for activity was determined by incubating proteases with casein (0.8%) in 50 mM Tris-HCl (pH 7.5), 5 mM CaCl2, at different temperatures for 30 minutes, after which the amount of released peptides, indicative for activity, was measured^11.

casein [3] = test: Hydrolysis of 10% (w/v) casein compared with commercial enzyme preparations; format: biochemical; conditions: casein 10% w/v
Source text: In industrial applications enzymes are used for the hydrolysis of protein preparations derived from different sources. Here we show the results of a comparative study in which the rate and quality of hydrolysis of casein and yeast protein preparations by the 8-fold mutated TLP-ste variant was compared with that obtained by the hydrolysis using 3 different enzyme preparations that are used for these purposes in industry. The hydrolysis conditions were chosen such that they were optimal for each of the enzyme preparation under study. The hydrolysis products were separated in an acid-soluble and a not acid-soluble fraction. The amount of acid-soluble protein material formed upon hydrolysis was determined by means of measuring the absorbance at 275 nm, whereas the composition of the acid-insoluble hydrolysis products was studied using SDS-PAGE.
Substrate (10% w/v of casein or yeast protein preparation) was incubated in 50 mM Tris-MES, 5 mM CaCl2, pH 6.5 at 50° C. (Enzyme I, Favourzyme™ 1000L); 50 mM Tris-MES, 5 mM CaCl2, pH 6.0 at 60° C. (Enzyme II, BioProtease N100L); 50 mM Tris-MES, 5 mM CaCl2, pH 8.0 at 60° C. […] The amount of acid-soluble protein released by hydrolysis was determined by measuring the absorbance of the samples at 275 nm. The acid precipitated proteins were redisolved in 6 M urea and subsequently analysed by SDS-PAGE (15% running gel).

B1: 8-fold mutant: TLP-ste with A4T, T56A, G58A, T63F, S65P, A69P and a disulfide bridge G8C-N60C (protein)
chain: VAGTSTVCVGRGVLGDQKYINTTYSSYYGYYYLQDNTRGSGIFTYDGRNRTVLPGSLWADADCQFFAPYDAPAVDAHYYAGVVYDYYKNVHGRLSYDGSNAAIRSTVHYGRGYNNAFWNGSQMVYGDGDGQTFLPFSGGIDVVGHELTHAVTDYTAGLVYQNESGAINEAMSDIFGTLVEFYANRNPDWEIGEDIYTPGVAGDALRSMSDPAKYGDPDHYSKRYTGTQDNGGVHTNSGIINKAAYLLSQGGVHYGVSVNGIGRDKMGKIFYRALVYYLTPTSNFSQLRAACVQAAADLYGSTSQEVNSVKQAFNAVGVY
With B1 the “half life at 100° C.” value [1] was ~3 h, the “half-life at 100° C. relative to the wild-type” value [1] was “more than 1000 times” and the “half-life 80° C.” value ([1]; buffer, pH 5.3) was “stable”. For the same molecule, the “half-life 90° C.” value ([1]; buffer, pH 5.3) was “stable”, the “half-life 100° C.” value ([1]; buffer, pH 5.3) was 2.83 h and the “rise of temperature for optimum activity versus wild-type” value (casein [2]) was 21 °C. The “Topt (optimum temperature for activity)” value (casein [2]; casein 0.8%, 30 minutes) was 95 °C, the “range of hydrolysis products (SDS-PAGE) versus the other enzymes” value (casein [3]) was “much broader range of hydrolysis products” and the “rate of hydrolysis and acid-soluble protein products versus the other enzyme preparations” value (casein [3]; enzyme 0.05% v/v, pH 7.0, 90° C.) was “more rapidly and that more acid-soluble protein products are produced”.
